The series concerns the target T1, SacUVDE (UV damage endonuclease) (Sulfolobus acidocaldarius, UniProt Q4J9T1 1-289).
T1 sequence: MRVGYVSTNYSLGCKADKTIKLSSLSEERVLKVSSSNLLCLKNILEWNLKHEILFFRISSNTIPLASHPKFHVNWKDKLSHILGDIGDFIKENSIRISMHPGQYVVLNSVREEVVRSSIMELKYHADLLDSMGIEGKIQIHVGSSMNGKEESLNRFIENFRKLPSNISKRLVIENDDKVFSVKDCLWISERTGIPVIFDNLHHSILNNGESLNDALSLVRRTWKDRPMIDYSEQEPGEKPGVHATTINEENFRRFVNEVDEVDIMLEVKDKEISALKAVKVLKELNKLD
The experiment in a line: X-ray crystallography.

B1: 15-mer duplex with 6-4 photoproduct (dsDNA)
DNA 1: GCGTCCTTGACGACG
DNA 2: CGTCGTCAAGGACGC
modifications: 6-4 photoproduct at T7-T8 of strand 1
On to B1, for which the binding result was “binds”.
